Assay results published in PMC12170172, “Initiation of ERAD by the bifunctional complex of Mnl1/Htm1 mannosidase and protein disulfide isomerase” (Nature Structural & Molecular Biology, 2025).

How the values were obtained:
Conditions in all cases: both partners purified
[1] = molecular target: T1, Mnl1 (C644S)–FLAG (S. cerevisiae, UniProt P38888 21-796, C644S); assay: cross-linking; purified complexes of Pdi1 with wild-type or mutant Mnl1 incubated with increasing concentrations of DPS (2,2′-dipyridyldisulfide) to induce disulfides; non-reducing SDS-PAGE, Coomassie blue
T1 construct: Mnl1 (Htm1) of S. cerevisiae with a substituted loop cysteine; source: S. cerevisiae, overexpressed together with Pdi1, purified as a complex (anti-FLAG M2 resin, Superdex 200); not shown: FLAG, C-terminal, kept
T1 sequence (looked up): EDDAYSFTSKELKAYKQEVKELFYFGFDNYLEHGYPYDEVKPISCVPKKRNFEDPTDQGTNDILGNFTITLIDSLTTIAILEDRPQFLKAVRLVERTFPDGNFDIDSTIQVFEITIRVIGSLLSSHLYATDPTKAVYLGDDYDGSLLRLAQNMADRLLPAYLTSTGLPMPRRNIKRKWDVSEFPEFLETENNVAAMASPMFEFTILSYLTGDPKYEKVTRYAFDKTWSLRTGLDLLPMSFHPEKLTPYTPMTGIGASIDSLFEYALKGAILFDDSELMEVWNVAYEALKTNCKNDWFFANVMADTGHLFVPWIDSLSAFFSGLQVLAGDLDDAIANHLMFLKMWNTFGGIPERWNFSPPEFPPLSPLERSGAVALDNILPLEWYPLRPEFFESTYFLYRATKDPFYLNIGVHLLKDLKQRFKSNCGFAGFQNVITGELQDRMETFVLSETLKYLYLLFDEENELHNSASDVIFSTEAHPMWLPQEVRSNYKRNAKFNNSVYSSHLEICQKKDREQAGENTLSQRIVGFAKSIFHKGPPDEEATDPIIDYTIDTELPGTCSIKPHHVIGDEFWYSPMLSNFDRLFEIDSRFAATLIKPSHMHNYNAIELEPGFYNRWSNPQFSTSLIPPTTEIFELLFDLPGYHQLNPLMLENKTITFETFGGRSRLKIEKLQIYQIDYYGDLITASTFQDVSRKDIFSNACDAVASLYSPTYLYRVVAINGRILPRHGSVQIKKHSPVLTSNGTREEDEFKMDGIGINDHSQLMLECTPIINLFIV

[2] = molecular target: T2, Mnl1 (C579S)–FLAG (S. cerevisiae, UniProt P38888 21-796, C579S); assay: as above
T2 construct: Mnl1 (Htm1) of S. cerevisiae with a substituted loop cysteine; source: S. cerevisiae, overexpressed together with Pdi1, purified as a complex (anti-FLAG M2 resin, Superdex 200); not shown: FLAG, C-terminal, kept
T2 sequence (looked up): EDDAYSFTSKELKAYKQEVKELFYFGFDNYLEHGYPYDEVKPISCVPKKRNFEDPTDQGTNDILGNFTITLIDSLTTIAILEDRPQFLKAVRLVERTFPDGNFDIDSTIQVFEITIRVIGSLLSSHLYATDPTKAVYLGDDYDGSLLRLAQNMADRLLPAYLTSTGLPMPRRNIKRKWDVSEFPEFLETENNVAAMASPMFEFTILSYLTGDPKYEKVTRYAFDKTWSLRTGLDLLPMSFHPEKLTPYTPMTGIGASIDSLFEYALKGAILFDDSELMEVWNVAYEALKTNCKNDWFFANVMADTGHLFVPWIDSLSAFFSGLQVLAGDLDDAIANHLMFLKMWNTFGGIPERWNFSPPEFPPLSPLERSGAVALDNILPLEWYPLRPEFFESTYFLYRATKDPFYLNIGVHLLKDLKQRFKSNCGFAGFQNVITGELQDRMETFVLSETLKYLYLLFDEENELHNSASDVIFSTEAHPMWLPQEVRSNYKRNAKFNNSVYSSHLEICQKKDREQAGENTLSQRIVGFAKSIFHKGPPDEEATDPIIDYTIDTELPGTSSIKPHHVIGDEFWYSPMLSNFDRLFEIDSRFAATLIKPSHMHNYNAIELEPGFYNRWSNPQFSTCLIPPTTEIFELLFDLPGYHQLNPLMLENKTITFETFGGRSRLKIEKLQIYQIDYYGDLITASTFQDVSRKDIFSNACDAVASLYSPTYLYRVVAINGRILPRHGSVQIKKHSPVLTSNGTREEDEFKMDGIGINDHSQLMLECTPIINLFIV

[3] = molecular target: T3, Mnl1 mCTD–FLAG (S. cerevisiae, UniProt P38888 21-796, L655N | F770Y | M772K); assay: cross-linking; competition: RBΔS, RBun or RBsc incubated with Mnl1–Pdi1 complex at the indicated molar ratios (tenfold excess in Fig. 6) in 25 mM HEPES pH 7.4, 150 mM NaCl, 0.1% Nonidet P-40, 2 mM CaCl2, 30 °C 30 min; then DPS 30 °C 30 min, N-ethylmaleimide; SDS-PAGE, Coomassie blue
T3 construct: Mnl1 (Htm1) of S. cerevisiae with three hydrophobic residues of the CTD groove changed to hydrophilic ones; source: S. cerevisiae, overexpressed together with Pdi1, purified as a complex (anti-FLAG M2 resin, Superdex 200); not shown: FLAG, C-terminal, kept
T3 sequence (looked up): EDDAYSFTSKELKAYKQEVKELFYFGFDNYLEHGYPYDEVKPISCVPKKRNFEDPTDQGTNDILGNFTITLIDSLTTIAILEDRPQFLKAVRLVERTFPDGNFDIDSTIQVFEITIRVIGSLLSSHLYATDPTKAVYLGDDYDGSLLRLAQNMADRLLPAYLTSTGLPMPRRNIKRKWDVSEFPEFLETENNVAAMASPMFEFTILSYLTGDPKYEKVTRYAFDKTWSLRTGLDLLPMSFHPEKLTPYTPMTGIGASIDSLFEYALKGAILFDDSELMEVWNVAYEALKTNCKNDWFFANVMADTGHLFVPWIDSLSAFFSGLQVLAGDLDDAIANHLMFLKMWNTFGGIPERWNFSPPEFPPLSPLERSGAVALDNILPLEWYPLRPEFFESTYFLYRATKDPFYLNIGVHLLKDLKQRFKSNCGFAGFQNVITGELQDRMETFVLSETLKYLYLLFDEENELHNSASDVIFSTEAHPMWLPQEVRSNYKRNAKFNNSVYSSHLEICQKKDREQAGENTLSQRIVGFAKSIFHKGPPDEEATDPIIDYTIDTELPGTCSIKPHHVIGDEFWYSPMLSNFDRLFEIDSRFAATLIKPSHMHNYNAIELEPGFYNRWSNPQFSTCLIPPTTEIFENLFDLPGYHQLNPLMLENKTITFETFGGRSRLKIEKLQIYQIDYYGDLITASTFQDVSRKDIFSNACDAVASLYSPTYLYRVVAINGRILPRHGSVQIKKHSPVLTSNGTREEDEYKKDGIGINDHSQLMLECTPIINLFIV

binding result [1]: binds
binding result [2]: binds
binding result [3]: binds
B1: Pdi1 (protein disulfide isomerase) (enzyme, S. cerevisiae, UniProt P17967 29-522, looked up)
chain: PEDSAVVKLATDSFNEYIQSHDLVLAEFFAPWCGHCKNMAPEYVKAAETLVEKNITLAQIDCTENQDLCMEHNIPGFPSLKIFKNSDVNNSIDYEGPRTAEAIVQFMIKQSQPAVAVVADLPAYLANETFVTPVIVQSGKIDADFNATFYSMANKHFNDYDFVSAENADDDFKLSIYLPSAMDEPVVYNGKKADIADADVFEKWLQVEALPYFGEIDGSVFAQYVESGLPLGYLFYNDEEELEEYKPLFTELAKKNRGLMNFVSIDARKFGRHAGNLNMKEQFPLFAIHDMTEDLKYGLPQLSEEAFDELSDKIVLESKAIESLVKDFLKGDASPIVKSQEIFENQDSSVFQLVGKNHDEIVNDPKKDVLVLYYAPWCGHCKRLAPTYQELADTYANATSDVLIAKLDHTENDVRGVVIEGYPTIVLYPGGKKSESVVYQGSRSLDSLFDFIKENGHFDVDGKALYEEAQEKAAEEADADAELADEEDAIHDEL
notes: Pdi1, protein disulfide isomerase of S. cerevisiae, untagged; Trx domains a, b, b′ and a′; amino acids 24–500 could be modelled; source: S. cerevisiae, overexpressed together with Mnl1–FLAG (GAL1 promoter), purified as a complex
